The target in the test is EphA2 receptor on tumor cells (human, UniProt P29317 24-976). The test can be described thus: cell-based or functional assay.
Sequence of EphA2 receptor on tumor cells (P29317 24-976): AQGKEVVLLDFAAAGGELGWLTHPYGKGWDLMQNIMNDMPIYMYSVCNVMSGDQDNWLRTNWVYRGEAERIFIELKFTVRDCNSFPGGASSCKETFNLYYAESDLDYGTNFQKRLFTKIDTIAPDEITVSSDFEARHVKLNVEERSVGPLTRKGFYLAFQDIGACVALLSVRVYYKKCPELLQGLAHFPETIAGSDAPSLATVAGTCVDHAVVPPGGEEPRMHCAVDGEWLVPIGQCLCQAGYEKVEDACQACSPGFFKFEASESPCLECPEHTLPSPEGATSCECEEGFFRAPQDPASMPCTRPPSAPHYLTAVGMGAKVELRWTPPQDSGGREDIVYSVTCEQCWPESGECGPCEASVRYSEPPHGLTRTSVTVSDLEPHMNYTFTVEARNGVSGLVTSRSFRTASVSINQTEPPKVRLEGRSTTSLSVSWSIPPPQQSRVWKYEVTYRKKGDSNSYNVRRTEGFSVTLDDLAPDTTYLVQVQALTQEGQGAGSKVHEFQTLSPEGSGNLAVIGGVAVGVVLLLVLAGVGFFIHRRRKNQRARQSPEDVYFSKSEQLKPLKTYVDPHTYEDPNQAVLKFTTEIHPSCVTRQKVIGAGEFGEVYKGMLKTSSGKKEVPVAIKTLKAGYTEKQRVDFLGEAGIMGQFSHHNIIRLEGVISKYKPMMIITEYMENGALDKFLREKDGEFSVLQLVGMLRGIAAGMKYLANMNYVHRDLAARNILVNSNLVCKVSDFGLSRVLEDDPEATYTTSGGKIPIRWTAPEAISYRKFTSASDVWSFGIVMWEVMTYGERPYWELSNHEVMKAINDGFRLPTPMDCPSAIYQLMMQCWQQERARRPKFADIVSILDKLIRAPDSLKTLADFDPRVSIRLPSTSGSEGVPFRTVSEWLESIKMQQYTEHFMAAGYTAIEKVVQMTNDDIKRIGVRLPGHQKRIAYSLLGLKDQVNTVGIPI

B1: hu2H11R35R74-PEG4-Mal-DM4 (DAR 7.00) (antibody, V domains shown)
VH: QVQLVQSGAEVVKPGASVKISCKASGYTFTAYYMHWVKQSPVQSLEWIGLVNPYNGFSSYNQKFQGKASLTVDRSSSTAYMELHSLTSEDSAVYYCAREFYGYRYFDVWGQGTAVTVSS
VL: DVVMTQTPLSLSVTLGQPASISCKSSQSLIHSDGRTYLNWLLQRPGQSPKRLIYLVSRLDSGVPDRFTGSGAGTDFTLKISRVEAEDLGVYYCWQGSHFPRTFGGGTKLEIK
modifications: DM4 through PEG4-Mal linker on lysine residues, sites not given; average DAR 7.00
As to B1, the “IC50 (M), cytotoxic activity on Lovo cells (WST8, 5 days)” value is 1.16e-11 M.

Source of the values: patent publication US20120201828A1 (Sanofi, published 2012).
